Measured values reported in publication doi:10.1101/2024.06.06.597810.

Target: Biotin-labeled MHV stem helix peptide (MHV)
Experiment: BLI

S2P6 WT Fab
Kd: 0.0704 µM
